According to patent US20130084295A1:
Each block holds one binder with its values, some of them ahead of it.

Tests used:
[1] = molecular target: IFN-α (subtype not stated; antigen of the ELISA, BIAcore and Kinexa assays of Example 2) (human); experiment: ELISA, IFN-α coated at 0.1 µg/ml, F(ab) at 10 µg/ml; SD 0.06, N 3
[2] = molecular target: IFN-α (subtype not stated; antigen of the ELISA, BIAcore and Kinexa assays of Example 2) (human); experiment: Kinexa
[3] = molecular target: IFN-α (subtype not stated; antigen of the ELISA, BIAcore and Kinexa assays of Example 2) (human); experiment: ELISA, IFN-α coated at 0.1 µg/ml, F(ab) at 10 µg/ml; SD 0.00, N 3
[4] = molecular target: IFN-α (subtype not stated; antigen of the ELISA, BIAcore and Kinexa assays of Example 2) (human); experiment: ELISA, IFN-α coated at 0.1 µg/ml, F(ab) at 10 µg/ml; SD 0.32, N 3
[5] = molecular target: IFN-α (subtype not stated; antigen of the ELISA, BIAcore and Kinexa assays of Example 2) (human); experiment: ELISA, IFN-α coated at 0.1 µg/ml, F(ab) at 10 µg/ml; SD 0.05, N 3
[6] = molecular target: leukocyte interferon (Sigma Product No. 1-2396): heterogeneous collection of IFN-α subtypes produced by activated leukocytes; experiment: cell-based or functional assay
[7] = molecular target: IFN-α (subtype not stated; antigen of the ELISA, BIAcore and Kinexa assays of Example 2) (human); experiment: Kinexa; remark: listed apart in the source

B1: humanized 9F3 F(ab) version F-11 (Fab, V domains shown)
VH: EVQLVESGGGLVQPGGSLRLSCATSGYTFTEYIIHWVRQAPGKGLEWVASINPDYDITNYNQRFKGRFTISLDKSSNTAYLQMNSLRAEDTAVYYCASWISDFFDYWGQGTLVTVSS
VL: DIQMTQSPSSLSASVGDRVTITCRASQSVSTSSYSYMHWYQQKPGKAPKLLIYYASNLESGVPSRFSGSGSGTDFTLTISSLQPEDFATYYCQHSWGIPRTFGQGTKVEIK
OD450 nm at 10 µg/ml (mean) [1]: 0.642 OD450 nm

B4: humanized 9F3 F(ab) version F-1 (Fab, V domains shown)
VH: EVQLVESGGGLVQPGGSLRLSCAASGYTFTEYIIHWVRQAPGKGLEWVASINPDYDITNYNQRFKGRFTISRDNSKNTLYLQMNSLRAEDTAVYYCARWISDFFDYWGQGTLVTVSS
VL: DIQMTQSPSSLSASVGDRVTITCRASQSVSTSSYSYMHWYQQKPGKAPKLLIYYASNLESGVPSRFSGSGSGTDFTLTISSLQPEDFATYYCQHSWGIPRTFGQGTKVEIK
OD450 nm at 10 µg/ml (mean) [3]: 0.06 OD450 nm

B6: humanized 9F3 F(ab) version F-12 (Fab, V domains shown)
VH: EVQLVESGGGLVQPGGSLRLSCATSGYTFTEYIIHWVRQAPGKGLEWVASINPDYDITNYNQRFKGRFTISLDKSKRTAYLQMNSLRAEDTAVYYCASWISDFFDYWGQGTLVTVSS
VL: DIQMTQSPSSLSASVGDRVTITCRASQSVSTSSYSYMHWYQQKPGKAPKLLIYYASNLESGVPSRFSGSGSGTDFTLTISSLQPEDFATYYCQHSWGIPRTFGQGTKVEIK
OD450 nm at 10 µg/ml (mean) [5]: 0.912 OD450 nm

Second part, the binder after the results:

fold reduction of affinity against the parental murine 9F3 antibody [2]: 2 fold
B2: humanized recombinant anti-IFN-α monoclonal antibody V13IgG2 (antibody, V domains shown)
VH: EVQLVESGGGLVQPGGSLRLSCATSGYTFTEYIIHWVRQAPGKGLEWVASINPDYDITNYNQRFKGRFTISLDKSKRTAYLQMNSLRAEDTAVYYCASWISDFFDYWGQGTLVTVSS
VL: DIQMTQSPSSLSASVGDRVTITCRASQSVSTSSYSYMHWYQQKPGKAPKVLISYASNLESGVPSRFSGSGSGTDFTLTISSLQPEDFATYYCQHSWGIPRTFGQGTKVEIKR

OD450 nm at 10 µg/ml (mean) [1]: 0.472 OD450 nm
B3: humanized 9F3 F(ab) version F-14 (Fab, V domains shown)
VH: EVQLVESGGGLVQPGGSLRLSCATSGYTFTEYIIHWVRQAPGKGLEWVASINPDYDITNYNQRFKGRFTISRDKSKRTAYLQMNSLRAEDTAVYYCASWISDFFDYWGQGTLVTVSS
VL: DIQMTQSPSSLSASVGDRVTITCRASQSVSTSSYSYMHWYQQKPGKAPKVLISYASNLESGVPSRFSGSGSGTDFTLTISSLQPEDFATYYCQHSWGIPRTFGQGTKVEIK

OD450 nm at 10 µg/ml (mean) [4]: 0.868 OD450 nm
B5: humanized 9F3 F(ab) version F-15 (Fab, V domains shown)
VH: EVQLVESGGGLVQPGGSLRLSCATSGYTFTEYIIHWVRQAPGKGLEWVASINPDYDITNYNQRFKGRFTISLDNSKRTAYLQMNSLRAEDTAVYYCASWISDFFDYWGQGTLVTVSS
VL: DIQMTQSPSSLSASVGDRVTITCRASQSVSTSSYSYMHWYQQKPGKAPKVLISYASNLESGVPSRFSGSGSGTDFTLTISSLQPEDFATYYCQHSWGIPRTFGQGTKVEIK

neutralization of anti-viral activity (EMC virus, A549 cells; 10 µg/ml mAb) [6]: > 95%
Kd [7]: 1.5 pM
B7: murine anti-human IFN-α monoclonal antibody 9F3 (antibody, IgG2, V domains shown)
VL: DIVLTQSPASLAVSLGQRATISCRASQSVSTSSYSYMHWYQQKPGQPPKVLISYASNLESGVPARFSGSGSGTDFTLNIHPVEEGDTATYFCQHSWGIPRTFGAGTKLELRRAV
VH: EVQLQQSGPELVKPGASVKISCKTSGYTFTEYIIHWVKQGHGRSLEWIGSINPDYDITNYNQRFKGKATLTLDKSSRTAYLELRSLTSEDSAVYYCASWISDFFDYWGQGTTLMVSAAS
